Source: US20140161821A1, “TREATMENT WITH ANTI-PCSK9 ANTIBODIES” (PFIZER INC., priority 2011, published 2014)

Tests used:
[1] = molecular target: T1, PCSK9 (Homo sapiens, UniProt Q8NBP7); experiment: Example 2 clinical study, single escalating IV doses: fasting lipids; format: in vivo
T1 construct: PCSK9 antagonist antibody that antagonizes circulating PCSK9; endogenous in cells; host or cells: human subjects in clinical trials (in vivo, circulating PCSK9)
Procedure: The study entailed a randomized, placebo-controlled, ascending, single dose study of L1L3. The subjects, investigator, and site personnel (except site personnel responsible for drug preparation) were blinded to treatment assignments, as was the CRO designee; while the Sponsor clinical research team was unblinded. The study was conducted in 6 planned cohorts of 8 subjects per cohort in an effort to seek a maximum tolerated dose or MTD (total of approximately 48 subjects). […] Doses were administered following an overnight fast as an intravenous infusion over 60 minutes. […] Infusions will be administered as a single infusion over 60 minutes.
Change in serum lipids (total cholesterol, LDL, HDL, Triglycerides, Non-HDL-C and Apoprotein B) were assessed.
Collection of fasting lipid profile was performed after at least a 10-hour fast (total cholesterol, LDL, HDL, Non-HDL Cholesterol, Apo B and triglycerides).

[2] = system: PCSK9; experiment: LDL-C and HDL-C in cynomolgus monkeys after IV dosing; format: in vivo
Description: One (1) mg/kg dosing reached a maximum effect of 71% reduction in LDL-C on day 5, and began to recover immediately thereafter, reaching pre-dose levels by day 14. Three (3) mg/kg dosing reached a maximum effect of 72% reduction in LDL-C by day 7, levels began to recover by day 13, and returned to baseline by day 22. Ten (10) mg/kg dosing maintained the 70% reduction in LDL-C levels until day 21 post-dosing, and animals fully recovered by day 31. […] HDL-C levels were not affected by L1L3 treatment in all dose groups.
These two additional doses again lowered LDL-C and kept LDL-C levels below 50% for 4 weeks. LDL-C levels returned to normal two weeks later.

T1 sequence (Q8NBP7 153-692): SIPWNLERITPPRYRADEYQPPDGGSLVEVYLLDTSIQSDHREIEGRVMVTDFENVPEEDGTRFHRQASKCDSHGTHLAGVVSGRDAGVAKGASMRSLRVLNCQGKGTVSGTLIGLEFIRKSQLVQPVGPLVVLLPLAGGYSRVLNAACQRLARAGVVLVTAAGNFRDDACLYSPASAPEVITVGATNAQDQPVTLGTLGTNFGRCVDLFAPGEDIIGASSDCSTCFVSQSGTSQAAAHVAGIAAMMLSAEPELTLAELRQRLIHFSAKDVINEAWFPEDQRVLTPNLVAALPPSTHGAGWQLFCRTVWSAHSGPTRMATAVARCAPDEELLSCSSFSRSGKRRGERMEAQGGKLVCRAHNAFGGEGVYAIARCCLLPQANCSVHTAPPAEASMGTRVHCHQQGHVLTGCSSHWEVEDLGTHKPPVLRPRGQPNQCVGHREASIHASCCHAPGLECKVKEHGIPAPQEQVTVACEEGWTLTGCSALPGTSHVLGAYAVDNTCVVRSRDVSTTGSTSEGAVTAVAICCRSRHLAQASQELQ
T1 sequence (Q8NBP7 31-152 partner limits assumed): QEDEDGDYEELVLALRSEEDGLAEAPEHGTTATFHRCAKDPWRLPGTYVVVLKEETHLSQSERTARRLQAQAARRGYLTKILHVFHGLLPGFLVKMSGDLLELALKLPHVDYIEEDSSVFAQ

B1: L1L3: humanized (<5% murine residues) monoclonal PCSK9 antagonist antibody that binds to secreted PCSK9; VH SEQ ID NO: 11, VL SEQ ID NO: 12 (antibody, V domains shown)
VH: QVQLVQSGAEVKKPGASVKVSCKASGYTFTSYYMHWVRQAPGQGLEWMGEISPFGGRTNYNEKFKSRVTMTRDTSTSTVYMELSSLRSEDTAVYYCARERPLYASDLWGQGTTVTVSS
VL: DIQMTQSPSSLSASVGDRVTITCRASQGISSALAWYQQKPGKAPKLLIYSASYRYTGVPSRFSGSGSGTDFTFTISSLQPEDIATYYCQQRYSLWRTFGQGTKLEIK
modifications: heavy chain variable region; light chain variable region
[1]; single IV 1 mg/kg, visit day 29
  mean percentage change from baseline of fasting LDL-C: −3.36%
[1]; single IV 3 mg/kg, visit day 1
  mean percentage change from baseline of fasting LDL-C: 0.000%
[1]; single IV 3 mg/kg, visit day 2
  mean percentage change from baseline of fasting LDL-C: −1.97%
[1]; single IV 3 mg/kg, visit day 3
  mean percentage change from baseline of fasting LDL-C: −13.20%
[1]; single IV 3 mg/kg, visit day 4
  mean percentage change from baseline of fasting LDL-C: −19.10%
[1]; single IV 3 mg/kg, visit day 8
  mean percentage change from baseline of fasting LDL-C: −39.78%
[1]; single IV 3 mg/kg, visit day 15
  mean percentage change from baseline of fasting LDL-C: −57.93%
[1]; single IV 3 mg/kg, visit day 22
  mean percentage change from baseline of fasting LDL-C: −65.09%
[1]; single IV 3 mg/kg, visit day 29
  mean percentage change from baseline of fasting LDL-C: −64.77%
[1]; single IV 3 mg/kg, visit day 43
  mean percentage change from baseline of fasting LDL-C: −27.56%
[1]; single IV 6 mg/kg, visit day 1
  mean percentage change from baseline of fasting LDL-C: 0.000%
[1]; single IV 6 mg/kg, visit day 2
  mean percentage change from baseline of fasting LDL-C: −1.44%
[1]; single IV 6 mg/kg, visit day 3
  mean percentage change from baseline of fasting LDL-C: −9.23%
[1]; single IV 6 mg/kg, visit day 4
  mean percentage change from baseline of fasting LDL-C: −18.80%
[1]; single IV 6 mg/kg, visit day 8
  mean percentage change from baseline of fasting LDL-C: −43.77%
[1]; single IV 6 mg/kg, visit day 15
  mean percentage change from baseline of fasting LDL-C: −61.52%
[1]; single IV 6 mg/kg, visit day 22
  mean percentage change from baseline of fasting LDL-C: −68.92%
[1]; single IV 6 mg/kg, visit day 29
  mean percentage change from baseline of fasting LDL-C: −64.19%
[1]; single IV 6 mg/kg, visit day 36
  mean percentage change from baseline of fasting LDL-C: −67.70%
[1]; single IV 6 mg/kg, visit day 43
  mean percentage change from baseline of fasting LDL-C: −64.18%
[1]; single IV 6 mg/kg, visit day 50
  mean percentage change from baseline of fasting LDL-C: −49.17%
[1]; single IV 6 mg/kg, visit day 57
  mean percentage change from baseline of fasting LDL-C: −36.12%
[1]; single IV 12 mg/kg, visit day 1
  mean percentage change from baseline of fasting LDL-C: 0.000%
[1]; single IV 12 mg/kg, visit day 2
  mean percentage change from baseline of fasting LDL-C: −8.26%
[1]; single IV 12 mg/kg, visit day 3
  mean percentage change from baseline of fasting LDL-C: −14.05%
[1]; single IV 12 mg/kg, visit day 4
  mean percentage change from baseline of fasting LDL-C: −23.23%
[1]; single IV 12 mg/kg, visit day 8
  mean percentage change from baseline of fasting LDL-C: −37.96%
[1]; single IV 12 mg/kg, visit day 15
  mean percentage change from baseline of fasting LDL-C: −66.25%
[1]; single IV 12 mg/kg, visit day 22
  mean percentage change from baseline of fasting LDL-C: −59.79%
[1]; single IV 12 mg/kg, visit day 29
  mean percentage change from baseline of fasting LDL-C: −74.67%
[1]; single IV 12 mg/kg, visit day 36
  mean percentage change from baseline of fasting LDL-C: −65.23%
[1]; single IV 12 mg/kg, visit day 43
  mean percentage change from baseline of fasting LDL-C: −69.31%
[1]; single IV 12 mg/kg, visit day 50
  mean percentage change from baseline of fasting LDL-C: −56.08%
[1]; single IV 12 mg/kg, visit day 57
  mean percentage change from baseline of fasting LDL-C: −63.10%
[1]; single IV 18 mg/kg, visit day 1
  mean percentage change from baseline of fasting LDL-C: 0.000%
[1]; single IV 18 mg/kg, visit day 2
  mean percentage change from baseline of fasting LDL-C: −11.52%
[1]; single IV 18 mg/kg, visit day 3
  mean percentage change from baseline of fasting LDL-C: −22.43%
[1]; single IV 18 mg/kg, visit day 4
  mean percentage change from baseline of fasting LDL-C: −34.36%
[1]; single IV 18 mg/kg, visit day 8
  mean percentage change from baseline of fasting LDL-C: −43.70%
[1]; single IV 18 mg/kg, visit day 15
  mean percentage change from baseline of fasting LDL-C: −82.89%
[1]; single IV 18 mg/kg, visit day 22
  mean percentage change from baseline of fasting LDL-C: −72.97%
[1]; single IV 18 mg/kg, visit day 29
  mean percentage change from baseline of fasting LDL-C: −67.40%
[1]; single IV 18 mg/kg, visit day 36
  mean percentage change from baseline of fasting LDL-C: −61.47%
[1]; single IV 18 mg/kg, visit day 43
  mean percentage change from baseline of fasting LDL-C: −80.21%
[1]; single IV 0.3-18 mg/kg, baseline 173 mg/dL
  Fasting triglyceride (TGs) levels: remained unchanged
[1]; single IV 0.3-18 mg/kg, baseline about 49 mg/dL
  High density lipoprotein cholesterol (HDL-C) levels: did not change significantly
[2]; single IV 0.1 mg/kg
  Day by which LDL-C recovered: ≤ 5 days
[2]; single IV 0.1 mg/kg, day 2
  LDL-C drop (transient): 50%
[2]; single IV 1 mg/kg
  Day by which LDL-C reached pre-dose levels: ≤ 14 days
[2]; single IV 1 mg/kg, day 5
  LDL-C reduction, maximum effect: 71%
[2]; single IV 3 mg/kg
  Day by which LDL-C returned to baseline: ≤ 22 days
[2]; single IV 3 mg/kg, by day 7
  LDL-C reduction, maximum effect: 72%
[2]; single IV 10 mg/kg
  Day by which animals fully recovered (LDL-C): ≤ 31 days
[2]; single IV 10 mg/kg, maintained until day 21 post-dosing
  LDL-C reduction: 70%
[2]; single IV 0.1, 1, 3, 10 mg/kg, all dose groups
  HDL-C levels: not affected
[2]; two additional IV doses of 3 mg/kg on study days 42 and 56
  Serum HDL-C levels: remained unchanged
[2]; two additional IV doses of 3 mg/kg on study days 42 and 56, for 4 weeks
  LDL-C levels: below 50%
